From the Immune Epitope Database (IEDB)
pIC50, pKd: −log10 of the molar value.

Experiments:
[1] = biological target: HLA-B*15:03; assay: IEDB peptide-MHC binding, purified MHC/competitive/radioactivity; filed as Kd, often an IC50 or EC50 that approximates it; ≥ and ≤ were set here for values at or beyond the usual limits of such assays
[2] = biological target: HLA-A*32:01; assay: as above
[3] = biological target: HLA-B*08:01; assay: as above
[4] = biological target: HLA-B*15:01; assay: as above
[5] = biological target: HLA-A*03:01; assay: IEDB peptide-MHC binding, purified MHC/direct/fluorescence; filed as Kd, often an IC50 or EC50 that approximates it; ≥ and ≤ were set here for values at or beyond the usual limits of such assays
[6] = biological target: HLA-A*11:01; assay: as above
[7] = biological target: HLA-A*31:01; assay: IEDB peptide-MHC binding, purified MHC/competitive/fluorescence; filed as Kd, often an IC50 or EC50 that approximates it; ≥ and ≤ were set here for values at or beyond the usual limits of such assays
[8] = biological target: HLA-A*11:01; assay: IEDB peptide-MHC binding, purified MHC/competitive/fluorescence; ≥ and ≤ were set here for values at or beyond the usual limits of such assays; settings: source organism: Vaccinia virus Copenhagen
[9] = biological target: HLA-B*58:01; assay: IEDB peptide-MHC binding, purified MHC/competitive/radioactivity; filed as Kd, often an IC50 or EC50 that approximates it; ≥ and ≤ were set here for values at or beyond the usual limits of such assays
[10] = biological target: HLA-A*30:02; assay: as above; settings: source organism: Dengue virus 1 Brazil/97-11/1997
[11] = biological target: HLA-A*03:01; assay: IEDB peptide-MHC binding, purified MHC/competitive/fluorescence; filed as Kd, often an IC50 or EC50 that approximates it; ≥ and ≤ were set here for values at or beyond the usual limits of such assays
[12] = biological target: HLA-B*15:01; assay: as above; settings: source organism: Bacillus anthracis str. A0488
[13] = biological target: HLA-A*24:02; assay: IEDB peptide-MHC binding, purified MHC/competitive/radioactivity; filed as Kd, often an IC50 or EC50 that approximates it; ≥ and ≤ were set here for values at or beyond the usual limits of such assays; settings: source organism: Dengue virus 4 Philippines/H241/1956
[14] = biological target: HLA-A*01:01; assay: IEDB peptide-MHC binding, purified MHC/direct/fluorescence; filed as Kd, often an IC50 or EC50 that approximates it; ≥ and ≤ were set here for values at or beyond the usual limits of such assays; settings: source organism: Yellow fever virus
[15] = biological target: HLA-A*02:01; assay: as above; settings: source organism: Yellow fever virus
[16] = biological target: HLA-A*29:02; assay: as above; settings: source organism: Yellow fever virus
[17] = biological target: HLA-A*31:01; assay: as above; settings: source organism: Yellow fever virus
[18] = biological target: HLA-A*69:01; assay: as above; settings: source organism: Yellow fever virus
[19] = biological target: HLA-B*07:02; assay: as above; settings: source organism: Yellow fever virus
[20] = biological target: HLA-B*15:01; assay: as above; settings: source organism: Yellow fever virus
[21] = biological target: HLA-B*18:01; assay: as above; settings: source organism: Yellow fever virus
[22] = biological target: HLA-B*27:05; assay: as above; settings: source organism: Yellow fever virus
[23] = biological target: HLA-B*40:01; assay: as above; settings: source organism: Yellow fever virus
[24] = biological target: HLA-B*44:02; assay: as above; settings: source organism: Yellow fever virus
[25] = biological target: HLA-B*46:01; assay: as above; settings: source organism: Yellow fever virus
[26] = biological target: HLA-B*48:01; assay: as above; settings: source organism: Yellow fever virus
[27] = biological target: HLA-B*57:01; assay: as above; settings: source organism: Yellow fever virus
[28] = biological target: HLA-B*58:01; assay: as above; settings: source organism: Yellow fever virus
[29] = biological target: HLA-B*53:01; assay: IEDB peptide-MHC binding, purified MHC/competitive/radioactivity; filed as Kd, often an IC50 or EC50 that approximates it; ≥ and ≤ were set here for values at or beyond the usual limits of such assays; settings: source organism: Dengue virus 4 Philippines/H241/1956
[30] = source organism: Vaccinia virus WR
[31] = source organism: Vaccinia virus Copenhagen
[32] = source organism: Dengue virus 2 Peru/IQT2913/1996
[33] = source organism: Mycobacterium tuberculosis
[34] = source organism: Dengue virus 1 Brazil/97-11/1997
[35] = source organism: Escherichia coli O157:H7
[36] = source organism: Yellow fever virus
[37] = source organism: West Nile virus
[38] = source organism: Dengue virus 4 Philippines/H241/1956
[39] = source organism: Escherichia coli 536

**Q.** How did the pKd [1, 30] turn out when RKYGCGNMF was run?
**A.** 8.90

**Q.** With RLYSIFLIF as the sequence, how does the pKd [2, 31] read?
**A.** 8.16

**Q.** And the pKd [3, 31]?
**A.** 4.80

**Q.** And the pKd [4, 31]?
**A.** 8.47

**Q.** What about the pKd [1, 31] of the same sequence?
**A.** 9.80

**Q.** RQMEGEGVF was tested. Which pKd [2, 32] did it give?
**A.** 6.37

**Q.** What about the pKd [4, 32] of the same sequence?
**A.** 8.31

**Q.** What does the source list for RSADGSPPY?
**A.** pKd [5, 33]: 5.60; pKd [6, 33]: 7.59; pKd ([7]; source organism: Mycobacterium tuberculosis variant bovis BCG str. Pasteur 1173P2): ≤ 4.70

**Q.** How did the pKd [4, 34] turn out when RSQVGVGVF was run?
**A.** 7.59

**Q.** RVIYPANQK was tested. Which pKd [5, 35] did it give?
**A.** 7.46

**Q.** What about the pKd [6, 35] of the same sequence?
**A.** 8.16

**Q.** And the pKd ([7]; source organism: Escherichia coli O157:H7 str. Sakai)?
**A.** 7.14

**Q.** How did the pIC50 [8] turn out when SAGESSILR was run?
**A.** 5.85

**Q.** With SLNTSTLGF as the sequence, how does the pKd [2, 31] read?
**A.** 6.38

**Q.** What about the pKd [4, 31] of the same sequence?
**A.** 8.78

**Q.** And the pKd [1, 31]?
**A.** 7.88

**Q.** With SPVMSGNSY as the sequence, how does the pKd [1, 30] read?
**A.** 6.44

**Q.** SSMKGENVF was tested. Which pKd [1, 30] did it give?
**A.** 7.33

**Q.** How did the pKd ([9]; source organism: Dengue virus 3 Singapore/8120/1995) turn out when TAAVLLLVTH was run?
**A.** 6.52

**Q.** TINAVASRK was tested. Which pKd [6, 36] did it give?
**A.** 8.37

**Q.** And the pKd [7, 36]?
**A.** 6.10

**Q.** How did the pKd [10] turn out when TMAHRKPTY was run?
**A.** 5.69

**Q.** And the pKd [4, 34]?
**A.** 6.84

**Q.** Which results are given for VIGFLALAK?
**A.** pKd ([5]; source organism: Amur virus): 6.64; pKd ([6]; source organism: Amur virus): 7.90; pKd ([7]; source organism: Orthohantavirus dobravaense): ≤ 4.70

**Q.** With VLALLAFFR as the sequence, how does the pKd [11, 37] read?
**A.** 6.80

**Q.** What about the pKd [7, 37] of the same sequence?
**A.** 5.97

**Q.** How did the pKd [12] turn out when VLQSAANMY was run?
**A.** 7.17

**Q.** What does the source list for VMKRYSAPF?
**A.** pKd [13]: 6.00; pKd [3, 38]: 8.05; pKd [4, 38]: 7.99

**Q.** With VNRWLFRHL as the sequence, how does the pKd [14] read?
**A.** ≤ 4.70

**Q.** What about the pKd [15] of the same sequence?
**A.** ≤ 4.70

**Q.** And the pKd [5, 36]?
**A.** ≤ 4.70

**Q.** What about the pKd [16] of the same sequence?
**A.** ≤ 4.70

**Q.** What about the pKd [17] of the same sequence?
**A.** ≤ 4.70

**Q.** What about the pKd [18] of the same sequence?
**A.** ≤ 4.70

**Q.** What about the pKd [19] of the same sequence?
**A.** ≤ 4.70

**Q.** What about the pKd [20] of the same sequence?
**A.** ≤ 4.70

**Q.** And the pKd [21]?
**A.** ≤ 4.70

**Q.** And the pKd [22]?
**A.** ≤ 4.70

**Q.** And the pKd [23]?
**A.** ≤ 4.70

**Q.** What about the pKd [24] of the same sequence?
**A.** ≤ 4.70

**Q.** What about the pKd [25] of the same sequence?
**A.** ≤ 4.70

**Q.** What about the pKd [26] of the same sequence?
**A.** ≤ 4.70

**Q.** What about the pKd [27] of the same sequence?
**A.** ≤ 4.70

**Q.** And the pKd [28]?
**A.** ≤ 4.70

**Q.** How did the pKd [11, 39] turn out when VTVVAVPLR was run?
**A.** ≤ 4.70

**Q.** And the pKd [7, 39]?
**A.** 6.97

**Q.** With WASVKKDLIS as the sequence, how does the pKd [9, 34] read?
**A.** 7.09

**Q.** WVAEIQPQW was tested. Which pKd [29] did it give?
**A.** 8.19

**Q.** What about the pKd [9, 38] of the same sequence?
**A.** 7.24

**Q.** How did the pKd [4, 30] turn out when YLFNAIETM was run?
**A.** 8.85

**Q.** What does the source list for YLHYYRIIR?
**A.** pKd [5, 33]: ≤ 4.70; pKd ([7]; source organism: Mycobacterium tuberculosis H37Rv): 6.61
